Experimental data reported in patent US20170015742A1 (published 2017).
Numbering of substitutions follows the chain as printed. Each block holds one binder with its values, some of them ahead of it.

Key:
[1] = target: recombinant human VEGF165 (human, UniProt P15692 207-395); assay: cell-based or functional assay
Target sequence in this assay (P15692 other isoform, or with tags, fused parts or gaps limits assumed): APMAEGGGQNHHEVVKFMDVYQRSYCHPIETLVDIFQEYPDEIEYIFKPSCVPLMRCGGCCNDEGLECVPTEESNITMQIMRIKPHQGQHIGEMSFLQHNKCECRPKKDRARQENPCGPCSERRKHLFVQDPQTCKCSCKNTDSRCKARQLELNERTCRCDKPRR

[2] = target: recombinant human PDGF-BB (human, UniProt P01127 82-190); assay: cell-based or functional assay
[3] = target: T1, recombinant human VEGF165 (human, UniProt P15692 207-395); assay: cell-based or functional assay; remark: listed apart in the source
T1 sequence (P15692 other isoform, or with tags, fused parts or gaps limits assumed): as above

[4] = target: T1, recombinant human VEGF165; assay: SPR (Biacore), antibody captured by anti-human Fc, hVEGF165 in solution
Procedure: Unreacted moieties on the biosensor surface were blocked with ethanolamine. For kinetic analysis, rate equations derived from the 1:1 Langmuir binding model were fitted simultaneously to multiple antigen injections (using global fit analysis) with the use of Scrubber 2 (BioLogic Software), Biacore Biaevaluation 4.0.1 software or Biacore T100 Evaluation software. Purified antibodies or DVD-Ig molecules were diluted in running buffer for capture across goat anti-human Fc reaction surfaces. Antibodies or DVD-Ig molecules to be captured as a ligand (1 μg/ml) were injected over reaction matrices at a flow rate of 10 μl/minute. During the assay, all measurements were referenced against the capture surface alone (i.e., with no captured antibody or DVD-Ig molecule). […] The equilibrium dissociation constant KD (M) of the reaction between antibodies and the target antigen was then calculated from the kinetic rate constants by the following formula: KD=Koff/Kₒₙ. Binding was recorded as a function of time and kinetic rate constants were calculated. In this assay, on-rates as fast as 10⁶M⁻¹s⁻¹ and off-rates as slow as 10⁻⁶ s⁻¹ could be measured.
(§1) Affinity matured humanized anti-VEGF antibodies were characterized for hVEGF₁₆₅ binding and potency. Binding affinity of these molecules to hVEGF₁₆₅ was determined by Biacore analysis (Example 1.1). Potency was evaluated in both cell-based and ELISA formats. The ability to block binding of hVEGF₁₆₅ to hVEGFR2 was evaluated in a competition ELISA (Example 1.4) Inhibition of hVEGF₁₆₅-induced cell proliferation was assessed using HMVEC-d cells (Example 1.10).

[5] = target: T1, recombinant human VEGF165; assay: competition ELISA: antibody titrated against biotinylated hVEGF165, binding to plate-coated hVEGF-R2-Fc
Procedure: To identify molecules that could block the binding of hVEGF₁₆₅ to the hVEGF-R2 (KDR/Flk-1) receptor, a competition ELISA was performed. […] Plates were then washed four times with wash buffer (TBS, 0.05% Tween-20) and blocked with Superblock blocking buffer (Thermo Scientific, cat#37535). […] The pre-incubated sample/hVEGF₁₆₅ complex was added to the coated plate at 50 μL in duplicate and incubated for 30 minutes at 25° C. with shaking. Following incubation, plates were washed four times with wash buffer. Streptavidin-polyHRP-40 (Fitzgerald cal#65r-s104phrp) was diluted in assay diluent (10% Superblock containing 0.05% surfactamps) and added to plates (50 μL) for 45 minutes at 25° C. with shaking. Plates were washed four times with wash buffer and developed with the addition of Enhanced K-blue TMB substrate (Neogen cat#308177). The reaction was stopped with 2N sulfuric acid (VWR, cat# BDH3500-1) and the absorbance was read at 450 nm-570 nm. A decrease in observed optical density indicates the test molecule is blocking the hVEGF₁₆₅ binding to the hVEGF-R2-Fc. Data was analyzed using Softmax Pro 4.8 software and IC₅₀ values calculated using a sigmoidal dose response (variable slope) fit in GraphPad Prism 5.
as §1

Sequence of recombinant human PDGF-BB (P01127 82-190 limits assumed): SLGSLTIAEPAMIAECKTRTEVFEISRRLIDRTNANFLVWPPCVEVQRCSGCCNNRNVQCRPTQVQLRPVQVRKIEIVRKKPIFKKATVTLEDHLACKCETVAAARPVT

Potency IC50 (nM), HMVEC-d hVEGF165 (proliferation) [1]: 0.709 nM
Potency IC50 (nM), NIH-3T3 hPDGF-BB (proliferation) [2]: 0.896 nM
B1: 3E2.1_GS_1E3.4 (PR-1613190) (bispecific antibody, human IgG1, kappa, L234A L235A)
heavy: EVQLVQSGAEVKKPGSSVKVSCKASGYTFTESYMYWVKQAPGQGLELIGRIDPEDGSTDYVEKFKNKATLTADKSTSTAYMELSSLRSEDTAVYFCARFGARSYFYPMDAWGQGTTVTVSSGGGGSGGGGSEIQLVQSGSELKKPGASVKVSCKASGYPFTNSGMYWVKQAPGQGLEYMGWINTEAGKPTYADDFKGRFVFSLDTSVSTAYLQISSLKAEDTAVYFCARWGYISDNSYGWFDYWGQGTLVTVSSASTKGPSVFPLAPSSKSTSGGTAALGCLVKDYFPEPVTVSWNSGALTSGVHTFPAVLQSSGLYSLSSVVTVPSSSLGTQTYICNVNHKPSNTKVDKKVEPKSCDKTHTCPPCPAPEAAGGPSVFLFPPKPKDTLMISRTPEVTCVVVDVSHEDPEVKFNWYVDGVEVHNAKTKPREEQYNSTYRVVSVLTVLHQDWLNGKEYKCKVSNKALPAPIEKTISKAKGQPREPQVYTLPPSREEMTKNQVSLTCLVKGFYPSDIAVEWESNGQPENNYKTTPPVLDSDGSFFLYSKLTVDKSRWQQGNVFSCSVMHEALHNAYTQKSLSLSPGK
light: ETVLTQSPATLSLSPGERATLSCRASESVSTLMHWYQQKPGQQPRLLIYGASNLESGVPARFSGSGSGTDFTLTISSLEPEDFAVYFCQQSWNDPWTFGGGTKVEIKGGSGGGGSGGATQLTQSPSSLSASVGDRVTISCRASEGVYSYMHWYQQKPGKQPKLLIYKASNLASGVPSRFSGSGSGTDFTLTISSLQPEDFATYFCHQNWNDPLTFGQGTKLEIKRTVAAPSVFIFPPSDEQLKSGTASVVCLLNNFYPREAKVQWKVDNALQSGNSQESVTEQDSKDSTYSLSSTLTLSKADYEKHKVYACEVTHQGLSSPVTKSFNRGEC

Potency IC50 (nM), HMVEC-d hVEGF165 (proliferation) [1]: 0.063 nM
Potency IC50 (nM), NIH-3T3 hPDGF-BB (proliferation) [2]: 1.16 nM
B2: 3E2.1_GS_CL-34565 (PR-1613189) (bispecific antibody, human IgG1, kappa, L234A L235A)
heavy: EVQLVQSGAEVKKPGSSVKVSCKASGYTFTESYMYWVKQAPGQGLELIGRIDPEDGSTDYVEKFKNKATLTADKSTSTAYMELSSLRSEDTAVYFCARFGARSYFYPMDAWGQGTTVTVSSGGGGSGGGGSEVQLVQSGSELKKPGASVKVSCKASGYTFTDYGMYWVRQAPGQGLEWMGWIDTETGDPTYADDFKGRFVFSLDTSVSTAYLQISSLKAEDTAVYYCARTNYYYRNYMFYFDYWGQGTMVTVSSASTKGPSVFPLAPSSKSTSGGTAALGCLVKDYFPEPVTVSWNSGALTSGVHTFPAVLQSSGLYSLSSVVTVPSSSLGTQTYICNVNHKPSNTKVDKKVEPKSCDKTHTCPPCPAPEAAGGPSVFLFPPKPKDTLMISRTPEVTCVVVDVSHEDPEVKFNWYVDGVEVHNAKTKPREEQYNSTYRVVSVLTVLHQDWLNGKEYKCKVSNKALPAPIEKTISKAKGQPREPQVYTLPPSREEMTKNQVSLTCLVKGFYPSDIAVEWESNGQPENNYKTTPPVLDSDGSFFLYSKLTVDKSRWQQGNVFSCSVMHEALHNAYTQKSLSLSPGK
light: ETVLTQSPATLSLSPGERATLSCRASESVSTLMHWYQQKPGQQPRLLIYGASNLESGVPARFSGSGSGTDFTLTISSLEPEDFAVYFCQQSWNDPWTFGGGTKVEIKGGSGGGGSGGEIVLTQSPATLSLSPGERATLFCRASQSVSNHMHWYQQKPGQAPRLLIYGASILESGVPARFSGSGSGTDFTLTISSLEPEDFAVYYCQQSWYDPITFGQGTKLEIKRTVAAPSVFIFPPSDEQLKSGTASVVCLLNNFYPREAKVQWKVDNALQSGNSQESVTEQDSKDSTYSLSSTLTLSKADYEKHKVYACEVTHQGLSSPVTKSFNRGEC

hVEGF165 IC50 (nM), Potency HMVEC-d (hVEGF165-induced proliferation) [3]: 0.117 nM
Kd [4]: 0.00054 nM
kon [4]: 2e+07 M⁻¹ s⁻¹
IC50 [5]: < 0.1 nM
B3: CL-32416-IgG (antibody, V domains shown)
VH: EVQLVQSGSELKKPGASVKVSCKASGYTFTDYGMYWVRQAPGQGLEWMGWIDTETGEPTYADDFKGRFVFSLDTSVSTAYLQISSLKAEDTAVYYCARTNYYYRSYMFYFDYWGQGTMVTVSS
VL: EIVLTQSPATLSLSPGERATLSCRASESVSTHMHWYQQKPGQAPRLLIYGASNLESGVPARFSGSGSGTDFTLTISSLEPEDFAVYFCQQSWNDPFTFGQGTKLEIK
notes: also called h4G8 CL-32416

hVEGF165 IC50 (nM), Potency HMVEC-d (hVEGF165-induced proliferation) [3]: 0.105 nM
Kd [4]: 0.00046 nM
kon [4]: 2.2e+07 M⁻¹ s⁻¹
IC50 [5]: < 0.1 nM
B4: CL-34455-IgG (antibody, V domains shown)
VH: B3 VH with D31N, D62Q, D63G, K65T, R104P
VL: B3 VL with E27Q, S30G, N53K, F87Y, N93Y, F96L
notes: also called h4G8 CL-34455

hVEGF165 IC50 (nM), Potency HMVEC-d (hVEGF165-induced proliferation) [3]: 0.106 nM
Kd [4]: 0.00052 nM
kon [4]: 2.7e+07 M⁻¹ s⁻¹
IC50 [5]: < 0.1 nM
B5: CL-34475-IgG (antibody, V domains shown)
VH: B3 VH with R104S
VL: B3 VL with E27Q, V58I, F87Y, N93Y, F96L
notes: also called h4G8 CL-34475

hVEGF165 IC50 (nM), Potency HMVEC-d (hVEGF165-induced proliferation) [3]: 0.126 nM
Kd [4]: 0.0004 nM
kon [4]: 2e+07 M⁻¹ s⁻¹
IC50 [5]: < 0.1 nM
B6: CL-34565-IgG (antibody, V domains shown)
VH: B3 VH with E57D, S105N
VL: B3 VL with S22F, E27Q, T31N, N53I, F87Y, N93Y, F96I
notes: also called h4G8 CL-34565

hVEGF165 IC50 (nM), Potency HMVEC-d (hVEGF165-induced proliferation) [3]: 0.077 nM
Kd [4]: 0.00085 nM
kon [4]: 1.1e+07 M⁻¹ s⁻¹
IC50 [5]: < 0.1 nM
B7: CL-34449-IgG (antibody, V domains shown)
VH: B3 VH
VL: B3 VL with E27Q, S30G, N53H, V58I, F87Y, S91T, N93Y, F96L
notes: also called h4G8 CL-34449

hVEGF165 IC50 (nM), Potency HMVEC-d (hVEGF165-induced proliferation) [3]: 0.138 nM
Kd [4]: 0.00024 nM
kon [4]: 1.7e+07 M⁻¹ s⁻¹
IC50 [5]: < 0.1 nM
B8: CL-34633-IgG (antibody, V domains shown)
VH: B3 VH with T30S
VL: B3 VL with E27Q, N93Y, F96L
notes: also called h4G8 CL-34633

hVEGF165 IC50 (nM), Potency HMVEC-d (hVEGF165-induced proliferation) [3]: 0.094 nM
Kd [4]: 0.00062 nM
kon [4]: 1.5e+07 M⁻¹ s⁻¹
IC50 [5]: < 0.1 nM
B9: CL-34469-IgG (antibody, V domains shown)
VH: B3 VH with D31N
VL: B3 VL with E27Q, F87Y, N93Y, F96L
notes: also called h4G8 CL-34469

hVEGF165 IC50 (nM), Potency HMVEC-d (hVEGF165-induced proliferation) [3]: 0.139 nM
Kd [4]: 0.00085 nM
kon [4]: 8.4e+06 M⁻¹ s⁻¹
IC50 [5]: < 0.1 nM
B10: CL-34540-IgG (antibody, V domains shown)
VH: B3 VH with E57Q
VL: B3 VL with S30G, T31K, G50A, F87Y, N93Y, F96L
notes: also called h4G8 CL-34540

hVEGF165 IC50 (nM), Potency HMVEC-d (hVEGF165-induced proliferation) [3]: 0.11 nM
Kd [4]: 0.00029 nM
kon [4]: 1.9e+07 M⁻¹ s⁻¹
IC50 [5]: < 0.1 nM
B11: CL-34570-IgG (antibody, V domains shown)
VH: B3 VH with T30D, E57T, R104S
VL: B3 VL with E27Q, V58I, F87Y, N93Y, F96L
notes: also called h4G8 CL-34570

hVEGF165 IC50 (nM), Potency HMVEC-d (hVEGF165-induced proliferation) [3]: 0.127 nM
Kd [4]: 0.00024 nM
kon [4]: 3.3e+07 M⁻¹ s⁻¹
IC50 [5]: < 0.1 nM
B12: CL-34538-IgG (antibody, V domains shown)
VH: B3 VH with R104P
VL: B3 VL with E27Q, S91T, N93Y, F96L
notes: also called h4G8 CL-34538

hVEGF165 IC50 (nM), Potency HMVEC-d (hVEGF165-induced proliferation) [3]: 0.116 nM
Kd [4]: 0.00053 nM
kon [4]: 2e+07 M⁻¹ s⁻¹
IC50 [5]: < 0.1 nM
B13: CL-34522-IgG (antibody, V domains shown)
VH: B3 VH with T30E, D31N, R104S
VL: B3 VL with E27Q, S30G, N53K, F87Y, N93Y, F96L
notes: also called h4G8 CL-34522
